Measurements from PMC10547473.
Like-named read-outs stand apart in the source and are kept apart here.

Row | Substance | localisation_or_trafficking (phosphorylation at S134) | localisation_or_trafficking (phosphorylation at S138) | localisation_or_trafficking (phosphorylation at S142) | localisation_or_trafficking (phosphorylation at S122) | localisation_or_trafficking (phosphorylation at S211)
1 | TFEB: 3xSA-TR (S134A, S138A, S142A) | decreases | decreases | decreases |  | 
2 | TFEB: 5xSA-TR (S122A, S134A, S138A, S142A, S211A) | abolishes | abolishes | abolishes | abolishes | abolishes
